# Target: HLA-A*02:01 (Homo sapiens, UniProt P04439, D140Y/D185E/D98H/E176V/E277Q/G131W/G231S/I119V/I121R/I166T/I218V/L300P/L318F/N151K/N90K/P208A/P217A/Q86G/Q94H/R138H/R169H/T345S)
# Experiment: MHC binding assay (UV-ligand exchange, β2m ELISA, peptide exchange yield)
# Conditions: binding of HLA-class I restricted peptides to HLA-A*02:01, UV-ligand exchange
# Method in brief: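 Peptide-MHC complexes formed by UV-ligand exchange, cleaving a UV-sensitive placeholder peptide in favour of the test peptide. Exchange yield measured by ELISA: monomers diluted 100-fold onto streptavidin-coated plates, 1 h 37 °C, detected with 2 ug/ml HRP anti-β2m and TMB, absorbance at 450 nm.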
row,Substance,"Peptide exchange (MHC class I binding score, peptide exchange yield)"
1,246 (LLWEVVSQL; listed as Homo sapiens) [compound 246],“+++” (≥50 = +++)
2,192 (KMLDGASFTL; listed as Homo sapiens) [compound 192],“+++” (≥50 = +++)
3,376 (AMFESSQNVLL; listed as Homo sapiens) [compound 376],“++” (≥20% = ++)
4,36 (YVLEDLEVTV; listed as Homo sapiens) [compound 36],“++” (≥20% = ++)
5,14 (AAYGGLNEKSFV; listed as Homo sapiens) [compound 14],“+++” (≥50 = +++)
6,74 (ALLDPEVLSIFV; listed as Homo sapiens) [compound 74],“+++” (≥50 = +++)
7,26 (ALLELAEEL; listed as Homo sapiens) [compound 26],“+++” (≥50 = +++)
8,70 (GLLDYPVGV; listed as Homo sapiens) [compound 70],“+++” (≥50 = +++)
9,269 (RVLEVGALQAV; listed as Homo sapiens) [compound 269],“++” (≥20% = ++)
10,212 (ALWDQDNLSV; listed as Homo sapiens) [compound 212],“++” (≥20% = ++)
11,366 (RLLDMGETDLML; listed as Homo sapiens) [compound 366],“+++” (≥50 = +++)
12,4 (GIMEHITKI; listed as Homo sapiens) [compound 4],“++++” (≥75% = ++++)
13,11 (KIFEMLEGV; listed as Homo sapiens) [compound 11],“+++” (≥50 = +++)
14,64 (YAAPGGLIGV; listed as Homo sapiens) [compound 64],“++” (≥20% = ++)
15,317 (SLAALVVHV; listed as Homo sapiens) [compound 317],“+++” (≥50 = +++)
16,165 (SLLDEIRAV; listed as Homo sapiens) [compound 165],“+++” (≥50 = +++)
17,110 (FLSQVDFEL; listed as Homo sapiens) [compound 110],“+++” (≥50 = +++)

row,Substance,"Peptide exchange (MHC class I binding score, peptide exchange yield)"
1,171 (LLLPLQILL; listed as Homo sapiens) [compound 171],“+++” (≥50 = +++)
2,270 (LLLDEEGTFSL; listed as Homo sapiens) [compound 270],“++” (≥20% = ++)
3,258 (ELAERVPAI; listed as Homo sapiens) [compound 258],“++” (≥20% = ++)
4,347 (SLFKHDPAAWEA; listed as Homo sapiens) [compound 347],“++++” (≥75% = ++++)
5,372 (TMLLNIPLV; listed as Homo sapiens) [compound 372],“++” (≥20% = ++)
6,107 (FLQPVDDTQHL; listed as Homo sapiens) [compound 107],“+++” (≥50 = +++)
7,93 (LLQAIKLYL; listed as Homo sapiens) [compound 93],“++” (≥20% = ++)
8,369 (GLFPEHLIDV; listed as Homo sapiens) [compound 369],“+++” (≥50 = +++)
9,92 (YLIPFTGIVGL; listed as Homo sapiens) [compound 92],“++” (≥20% = ++)
10,355 (SIQQSIERLLV; listed as Homo sapiens) [compound 355],“++” (≥20% = ++)
11,345 (VIWKALIHL; listed as Homo sapiens) [compound 345],“+++” (≥50 = +++)
12,117 (ILPDGEDFLAV; listed as Homo sapiens) [compound 117],“+++” (≥50 = +++)
13,335 (YSLSSVVTV; listed as Homo sapiens) [compound 335],“+++” (≥50 = +++)
14,85 (KMSELRVTL; listed as Homo sapiens) [compound 85],“+++” (≥50 = +++)
15,134 (YLQELIFSV; listed as Homo sapiens) [compound 134],“+++” (≥50 = +++)
16,96 (YIFTDNPAAV; listed as Homo sapiens) [compound 96],“+++” (≥50 = +++)
17,59 (IMEDIILTL; listed as Homo sapiens) [compound 59],“+++” (≥50 = +++)

# The next lines start with the values.
row,"Peptide exchange (MHC class I binding score, peptide exchange yield)",Substance
1,“++” (≥20% = ++),505 (SLAPGDVVRQV; listed as Homo sapiens) [compound 505]
2,“++” (≥20% = ++),432 (TLIEESAKV; listed as Homo sapiens) [compound 432]
3,“+++” (≥50 = +++),468 (YLRSVGDGETV; listed as Homo sapiens) [compound 468]
4,“+++” (≥50 = +++),560 (ALWDIETGQQTTT; listed as Homo sapiens) [compound 560]
5,“+++” (≥50 = +++),618 (VLFDSESIGIYV; listed as Homo sapiens) [compound 618]
6,“++” (≥20% = ++),434 (KVSNSGITRV; listed as Homo sapiens) [compound 434]
7,“+++” (≥50 = +++),518 (KLNAEVACV; listed as Homo sapiens) [compound 518]
8,“+++” (≥50 = +++),517 (LLMPIPEGLTL; listed as Homo sapiens) [compound 517]
9,“++” (≥20% = ++),398 (KLLEEDGTIITL; listed as Homo sapiens) [compound 398]
10,“+++” (≥50 = +++),465 (QLCDLNAEL; listed as Homo sapiens) [compound 465]
11,“+++” (≥50 = +++),388 (SLTIDGIRYV; listed as Homo sapiens) [compound 388]
12,“++” (≥20% = ++),379 (IMEGTLTRV; listed as Homo sapiens) [compound 379]
13,“+++” (≥50 = +++),473 (AMATESILHFA; listed as Homo sapiens) [compound 473]
14,“+++” (≥50 = +++),391 (YVYPQRLNFV; listed as Homo sapiens) [compound 391]
15,“+++” (≥50 = +++),433 (AMLNEPWAV; listed as Homo sapiens) [compound 433]
16,“+++” (≥50 = +++),530 (VMYADIGGMDI; listed as Homo sapiens) [compound 530]
17,“+++” (≥50 = +++),488 (FLAEDPKVTL; listed as Homo sapiens) [compound 488]
18,“+++” (≥50 = +++),386 (ILFRYPLTI; listed as Homo sapiens) [compound 386]
19,“+++” (≥50 = +++),531 (YTLPIASSIRL; listed as Homo sapiens) [compound 531]
20,“+++” (≥50 = +++),569 (KLVDRTWTL; listed as Homo sapiens) [compound 569]
21,“++++” (≥75% = ++++),568 (TLYDIAHTPGV; listed as Homo sapiens) [compound 568]
22,“+++” (≥50 = +++),407 (YLMDLINFL; listed as Homo sapiens) [compound 407]
23,“+++” (≥50 = +++),551 (KLYESLLPFA; listed as Homo sapiens) [compound 551]
24,“+++” (≥50 = +++),508 (ILAQEQLVVGV; listed as Homo sapiens) [compound 508]
25,“+++” (≥50 = +++),587 (VMNDRLYAI; listed as Homo sapiens) [compound 587]
26,“++” (≥20% = ++),385 (SLLEQGLVEA; listed as Homo sapiens) [compound 385]
27,“++++” (≥75% = ++++),466 (VLIANLEKL; listed as Homo sapiens) [compound 466]

# From patent publication US11230581B2, “Peptides and combination of peptides for use in immunotherapy against ovarian cancer and other cancers” (Immatics Biotechnologies GmbH, priority 2015, dated 2022)
